Measured values taken from patent US20250277030A1 (Zymeworks, published 2025).
Positions count from the first letter of the chain named.

B1: v29455 humanized anti-NaPi2b antibody (H2L2) (antibody, human IgG1, kappa, V domains shown)
VH: QVQLVQSGAEVKKPGASVKVSCKASGFTFTSYNVHWVRQAPGQGLEWIAAISPGNGDLSYAQKFQGRVTMTVDTSTSTVYMELSSLRSEDTAVYYCARGRTGMGAVDYWGQGTLVTVSS
VL: DVQMTQSPSSLSASVGDRVTITCRASQDVYSYLNWYQQKPGKAVKLLIYYTSRLQSGVPSRFSGSGSGTDYTLTISSLQPEDFATYYCQQYNIFPWTFGQGTKLEIKR
B2: v29449 humanized anti-NaPi2b antibody (H4L3) (antibody, human IgG1, kappa, V domains shown)
VH: B1 VH with V20M, V68A, M70L, T74R, V79A
VL: B1 VL with F83I
notes: Full-size IgG1/kappa
B3: v29450 humanized anti-NaPi2b antibody (H3L3) (antibody, human IgG1, kappa, V domains shown)
VH: B1 VH with V20M, V68A, M70L, V79A
VL: B1 VL with F83I
B4: v29451 humanized anti-NaPi2b antibody (H2L3) (antibody, human IgG1, kappa, V domains shown)
VH: B1 VH
VL: B1 VL with F83I
B5: v29453 humanized anti-NaPi2b antibody (H4L2) (antibody, human IgG1, kappa, V domains shown)
VH: B1 VH with V20M, V68A, M70L, T74R, V79A
VL: B1 VL
B6: v29454 humanized anti-NaPi2b antibody (H3L2) (antibody, human IgG1, kappa, V domains shown)
VH: B1 VH with V20M, V68A, M70L, V79A
VL: B1 VL
B7: v29457 humanized anti-NaPi2b antibody (H4L1) (antibody, human IgG1, kappa, V domains shown)
VH: B1 VH with V20M, V68A, M70L, T74R, V79A
VL: B1 VL with V2I, V44P, Y71F
B8: v29458 humanized anti-NaPi2b antibody (H3L1) (antibody, human IgG1, kappa, V domains shown)
VH: B1 VH with V20M, V68A, M70L, V79A
VL: B1 VL with V2I, V44P, Y71F
B9: v29459 humanized anti-NaPi2b antibody (H2L1) (antibody, human IgG1, kappa, V domains shown)
VH: B1 VH
VL: B1 VL with V2I, V44P, Y71F
B10: v29460 humanized anti-NaPi2b antibody (H1L1) (antibody, human IgG1, kappa, V domains shown)
VH: B1 VH with I48M, A49G, V72R
VL: B1 VL with V2I, V44P, Y71F
B11: v18993-DL2, lifastuzumab conjugated to MT-VC-Compound 1 (DAR 4) (antibody, human IgG1, kappa)
heavy 1: GEVQLVESGGGLVQPGGSLRLSCAASGFSFSDFAMSWVRQAPGKGLEWVATIGRVAFHTYYPDSMKGRFTISRDNSKNTLYLQMNSLRAEDTAVYYCARHRGFDVGHFDFWGQGTLVTVSSASTKGPSVFPLAPSSKSTSGGTAALGCLVKDYFPEPVTVSWNSGALTSGVHTFPAVLQSSGLYSLSSVVTVPSSSLGTQTYICNVNHKPSNTKVDKKVEPKSCDKTHTCPPCPAPELLGGPSVFLFPPKPKDTLMISRTPEVTCVVVDVSHEDPEVKFNWYVDGVEVHNAKTKPREEQYNSTYRVVSVLTVLHQDWLNGKEYKCKVSNKALPAPIEKTISKAKGQPREPQVYVYPPSRDELTKNQVSLTCLVKGFYPSDIAVEWESNGQPENNYKTTPPVLDSDGSFALVSKLTVDKSRWQQGNVFSCSVMHEALHNHYTQKSLSLSPG
heavy 2: not shown
light: GDIQMTQSPSSLSASVGDRVTITCRSSETLVHSSGNTYLEWYQQKPGKAPKLLIYRVSNRFSGVPSRFSGSGSGTDFTLTISSLQPEDFATYYCFQGSFNPLTFGQGTKVEIKRTVAAPSVFIFPPSDEQLKSGTASVVCLLNNFYPREAKVQWKVDNALQSGNSQESVTEQDSKDSTYSLSSTLTLSKADYEKHKVYACEVTHQGLSSPVTKSFNRGEC
modifications: MT-VC-Compound 1 (DL2) on cysteines freed by reduction; positions not given; MT-VC-Compound 1 (DL2) on cysteines freed by reduction; positions not given; DAR 4 for the whole antibody
notes: also called Lifa Compound 1 ADC; lifastuzumab-DL2 ADC
B12: v18993-DL1, lifastuzumab conjugated to MC-GGFG-AM-DXd1 (DAR 8) (antibody, human IgG1, kappa)
heavy 1: B11 heavy 1
heavy 2: not shown
light: B11 light
modifications: MC-GGFG-AM-DXd1 (DL1) on cysteines freed by reduction; positions not given; MC-GGFG-AM-DXd1 (DL1) on cysteines freed by reduction; positions not given; DAR 8 for the whole antibody
B13: v18992-DL1, MX35 conjugated to MC-GGFG-AM-DXd1 (DAR 8) (antibody, human IgG1, kappa)
heavy 1: GQVQLVQSGAEVVKPGASVKMSCKASGYTFTGYNIHWVKQAPGQGLEWIGAIYPGNGDTSYKQKFRGRATLTADTSTSTVYMELSSLRSEDSAVYYCARGETARATFAYWGQGTLVTVSSASTKGPSVFPLAPSSKSTSGGTAALGCLVKDYFPEPVTVSWNSGALTSGVHTFPAVLQSSGLYSLSSVVTVPSSSLGTQTYICNVNHKPSNTKVDKKVEPKSCDKTHTCPPCPAPELLGGPSVFLFPPKPKDTLMISRTPEVTCVVVDVSHEDPEVKFNWYVDGVEVHNAKTKPREEQYNSTYRVVSVLTVLHQDWLNGKEYKCKVSNKALPAPIEKTISKAKGQPREPQVYVYPPSRDELTKNQVSLTCLVKGFYPSDIAVEWESNGQPENNYKTTPPVLDSDGSFALVSKLTVDKSRWQQGNVFSCSVMHEALHNHYTQKSLSLSPG
heavy 2: not shown
light: GDIQMTQSPSSLSASVGDRVTITCSASQDIGNFLNWYQQKPGKTVKVLIYYTSSLYSGVPSRFSGSGSGTDYTLTISSLQPEDFATYYCQQYSKLPLTFGQGTKLELKRTVAAPSVFIFPPSDEQLKSGTASVVCLLNNFYPREAKVQWKVDNALQSGNSQESVTEQDSKDSTYSLSSTLTLSKADYEKHKVYACEVTHQGLSSPVTKSFNRGEC
modifications: MC-GGFG-AM-DXd1 (DL1) on cysteines freed by reduction; positions not given; MC-GGFG-AM-DXd1 (DL1) on cysteines freed by reduction; positions not given; DAR 8 for the whole antibody
B14: v23855-DL3, v23855 conjugated to MC-VC-PABC-MMAE (DAR 4) (antibody, human IgG1, kappa, V domains shown)
VH: QAYLQQSGAELVRPGASVKMSCKASGFTFTSYNVHWVKQTPRQGLEWIAAISPGNGDLSYNQRFKDKATLTVDRSSSTAYMQLSGLTSEDSAVYFCARGRTGMGAVDYWGQGTSVTVSS
VL: DVQMTQTASSLSASLGDRVTISCRASQDVYSYLNWYQQKPHGTVKLLIYYTSRLQSGVPSRFTGSGSGTDYSLTISNLEPEDIATYYCQQYNIFPWTFGGGTKLEIKR
modifications: MC-VC-PABC-MMAE (DL3) on cysteines freed by reduction; positions not given; MC-VC-PABC-MMAE (DL3) on cysteines freed by reduction; positions not given; DAR 4 for the whole antibody

molecular target: T1, human sodium-dependent phosphate transporter 2B (NaPi2b) (human, UniProt O95436 1-690); assay: flow cytometry, IGROV-1 cells (endogenous NaPi2b), 24 h at 4 °C; apparent Kd
T1 construct: UniProt ID is given as 095436 [sic]; also called hNaPi2b; Hu NaPi2b
T1 sequence: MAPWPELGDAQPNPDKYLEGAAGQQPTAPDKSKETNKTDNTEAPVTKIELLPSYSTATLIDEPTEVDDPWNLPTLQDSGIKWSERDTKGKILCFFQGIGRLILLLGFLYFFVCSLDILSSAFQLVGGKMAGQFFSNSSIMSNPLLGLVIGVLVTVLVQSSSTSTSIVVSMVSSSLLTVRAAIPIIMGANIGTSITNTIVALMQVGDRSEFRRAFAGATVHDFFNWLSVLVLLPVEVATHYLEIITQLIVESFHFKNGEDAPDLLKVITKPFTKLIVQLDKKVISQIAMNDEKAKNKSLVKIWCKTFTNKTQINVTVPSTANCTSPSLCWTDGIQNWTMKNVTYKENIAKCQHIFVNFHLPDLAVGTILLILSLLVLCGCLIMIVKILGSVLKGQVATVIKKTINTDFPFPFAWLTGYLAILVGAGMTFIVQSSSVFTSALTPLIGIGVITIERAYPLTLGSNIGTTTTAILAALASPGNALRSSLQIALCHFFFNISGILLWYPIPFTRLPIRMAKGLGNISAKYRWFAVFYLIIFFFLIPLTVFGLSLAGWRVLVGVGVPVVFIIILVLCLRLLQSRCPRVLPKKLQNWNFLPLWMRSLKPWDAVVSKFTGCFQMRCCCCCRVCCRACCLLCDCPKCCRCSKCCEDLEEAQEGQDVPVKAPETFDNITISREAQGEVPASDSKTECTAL
Method: (§1) IGROV-1 cells express endogenous NaPi2b at a high level.
(§2) Briefly, cells were seeded at 50,000 cells/well in conical-bottom 96-well plates and treated with test antibody for 24 hours at 4° C. to prevent internalization. […] Following incubation, cells were washed and stained with anti-Human IgG Fc AF647 conjugate (Jackson Immuno Research Labs, West Grove, PA; Cat. No. 109-605-098) at 4° C. for 30 min. Following incubation and washing, fluorescence was detected by flow cytometry on a BD LSRFortessa™ Cell Analyzer (BD Biosciences, Franklin Lake, NJ) with 1,000 minimum events collected per well. The AF647/APC-A GeoMean (fluorescence signal geometric mean, proportional to anti-Human AF647 binding) was calculated for the live cell population using FlowJo™ Version 10.8.1 (BD Biosciences, Franklin Lake, NJ) and plotted for each test antibody using GraphPad Prism Version 9 (GraphPad Software, San Diego, CA).

Binder	Kd [nM]
B1	1.18
B2	0.79
B3	0.96
B4	1.49
B5	0.82
B6	0.92
B7	1.73
B8	1.39
B9	1.61
B10	1.67
B11	3

molecular target: T1, human sodium-dependent phosphate …; assay: cell-based or functional assay

Binder	In vitro cytotoxicity EC50 (nM), HCC-78 [nM]	In vitro cytotoxicity EC50 (nM), IGROV-1 [nM]	In vitro cytotoxicity EC50 (nM), OVCAR-3 [nM]
B11	1.77	2.12	0.49
B12	5.45	3.45	–
B13	0.68	1.04	–
B14	0.2	0.18	0.05

molecular target: T1, human sodium-dependent phosphate …; assay: flow cytometry, IGROV-1 cells (endogenous NaPi2b), 24 h at 4 °C
Method: as §1, §2

Binder	Bmax (MFI)
B1	41900
B2	44500
B3	43800
B4	46200
B5	44500
B6	42300
B7	44500
B8	40800
B9	40900
B10	40100
B11	39800
